Data as given in patent publication US20250002610A1 (Genmab, published 2025).

Experiments:
[1] = target: human DR4 with death domain deletion on ExpiCHO-S cells (human); experiment: flow cytometry, ExpiCHO-S cells expressing human DR4, n = 2
Protocol: Binding of BisG1-FAPα-FERL/DR4-FERR, BisG1-DR4-FEAL/b12-FEAR and IgG1-DR4-FERR to DR4 of various species commonly used for nonclinical toxicology studies was assessed by flow cytometry using ExpiCHO-S cells transiently expressing DR4 from different animal species. In contrast to other species, rodents only express one DR which has highest homology with human DR5. Therefore, ExpiCHO-S cells transiently expressing rat and mouse DR protein were used instead. All DR constructs lack the intracellular DD to avoid apoptosis of transfected cells upon DR(4) activation. IgG1-b12 was used as negative control.

human DR4HsECD-FcHisCtag = target: T1, human DR4HsECD-FcHisCtag (human); experiment: BLI (Octet), antigen captured on anti-Penta-HIS sensors, average of three experiments
T1 construct: also called recombinant human DR4
T1 sequence (chain, as listed by the source limits assumed): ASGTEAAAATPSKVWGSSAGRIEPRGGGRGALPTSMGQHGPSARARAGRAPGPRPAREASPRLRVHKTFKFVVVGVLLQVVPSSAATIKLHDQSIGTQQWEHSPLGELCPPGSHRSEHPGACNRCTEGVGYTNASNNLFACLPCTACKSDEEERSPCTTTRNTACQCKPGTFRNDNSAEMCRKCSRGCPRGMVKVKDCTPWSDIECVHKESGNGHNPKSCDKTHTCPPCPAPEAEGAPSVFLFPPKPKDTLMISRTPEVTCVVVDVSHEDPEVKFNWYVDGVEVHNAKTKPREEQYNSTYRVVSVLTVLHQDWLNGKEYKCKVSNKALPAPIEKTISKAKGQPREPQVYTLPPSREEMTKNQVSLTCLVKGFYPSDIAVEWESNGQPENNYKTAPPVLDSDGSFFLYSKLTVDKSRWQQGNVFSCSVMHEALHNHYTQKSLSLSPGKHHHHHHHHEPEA
Protocol: (§1) Experiments were carried out while shaking at 1,000 RPM at 30° C. Amine Reactive 2nd Generation (AR2G) biosensors (Sartorius, Cat #18-5092) were activated by reaction with 20 mM EDC (N-(3-Dimethylaminopropyl)-N′-ethylcarbodiimide hydrochloride) (Sigma-Aldrich, Cat #03449) and 10 mM s-NHS (N-hydroxysulfosuccinimide sodium salt) (Sigma-Aldrich, Cat #56485) for 300 s. The activated AR2G sensors were loaded with 2.5 μg/mL His-tagged recombinant Human FAPα (Acro Biosystems, Cat #FAP-H5244-100ug) in 10 mM Sodium Acetate pH 5.0 (Sartorius, Cat #18-1069) or 2.5 μg/mL His-tagged recombinant Cynomolgus FAPα (Acro Biosystems, Cat #FAP-C52H3-100ug) in 10 mM Sodium Acetate pH 5.0 for 600 s and quenched with 1 M ethanolamine pH 8.5 (Sartorius Cat #18-1071) for 300 s. After a baseline measurement in Sample Diluent (1000 s; Sartorius, Cat #18-1104), the association (100 s) and dissociation (4,000 s) of functionally monovalent antibody was determined using a concentration range of 0.78-800 nM with two-fold dilution steps in Sample Diluent. The molecular mass of the antibodies used for the calculations was calculated from the sequences.
(§2) The binding affinity of BisG1-FAPα-FERL/DR4-FERR, BisG1-b12-FERL/DR4-FERR and control BisG1-FAPα-FERL/b12-FERR to recombinant human and cynomolgus monkey DR4 protein was determined using label-free biolayer interferometry on an Octet HTX instrument (Sartorius).
(§3) The protocol detailed in Example 5 was used with the following differences: anti-Penta-HIS biosensors (Sartorius, Cat #18-5120) were used; the sensors were preconditioned by exposure to 10 mM glycine (Sigma-Aldrich, Cat #15527) buffer pH 1.5 for 5 s, followed by neutralization in Sample Diluent (Sartorius, Cat #18-1104) for 5 s; both steps were repeated 2 times; the sensors were loaded with 50 nM human DR4HsECD-FcHisCtag (SEQ ID NO: 66), or cynomolgus DR4MfECD-FcHisCtag (SEQ ID NO: 67), for 600 s; the dissociation time was 1,000 s; The window of interest for the dissociation time was set at 100 s for the cynomolgus antigen and at 1,000 s for the human antigen.

[2] = target: T2, cynomolgus DR4MfECD-FcHisCtag (cynomolgus monkey); experiment: as above
T2 construct: also called recombinant cynomolgus monkey DR4
T2 chain: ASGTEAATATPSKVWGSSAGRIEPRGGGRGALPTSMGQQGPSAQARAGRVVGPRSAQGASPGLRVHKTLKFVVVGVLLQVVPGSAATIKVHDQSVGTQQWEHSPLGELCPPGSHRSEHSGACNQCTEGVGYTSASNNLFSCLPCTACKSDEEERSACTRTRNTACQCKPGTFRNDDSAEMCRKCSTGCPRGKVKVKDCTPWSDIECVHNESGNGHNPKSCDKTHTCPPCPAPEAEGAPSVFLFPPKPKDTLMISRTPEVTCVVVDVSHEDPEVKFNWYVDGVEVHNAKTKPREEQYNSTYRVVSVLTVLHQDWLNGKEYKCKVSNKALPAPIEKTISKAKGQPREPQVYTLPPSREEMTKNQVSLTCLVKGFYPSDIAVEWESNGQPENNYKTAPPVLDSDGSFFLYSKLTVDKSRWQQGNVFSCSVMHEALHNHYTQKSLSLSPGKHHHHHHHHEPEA
Protocol: as §1, §2, §3

B1: BisG1-FAPα-FERL/DR4-FERR (bispecific antibody, human IgG1, kappa, lambda)
heavy 1: EVQLLESGGGLVQPGGSPRLSCEASGFTFSSYALSWVRQAPGKGLEWVSAISGSGGGRYYADSVKGRFTISRDNSKNTLFLQMNSLRAEDTAVYYCAKEGYSSSGTYWDHWGQGTLVTVSSASTKGPSVFPLAPSSKSTSGGTAALGCLVKDYFPEPVTVSWNSGALTSGVHTFPAVLQSSGLYSLSSVVTVPSSSLGTQTYICNVNHKPSNTKVDKRVEPKSCDKTHTCPPCPAPEFERGPSVFLFPPKPKDTLMISRTPEVTCVVVDVSHEDPEVKFNWYVDGVEVHNAKTKPREEQYNSTYRVVSVLTVLHQDWLNGKEYKCKVSNKALPAPIEKTISKAKGQPREPQVYTLPPSREEMTKNQVSLTCLVKGFYPSDIAVEWESNGQPENNYKTTPPVLDSDGSFLLYSKLTVDKSRWQQGNVFSCSVMHEALHNHYTQKSLSLSPG
light 1: AIQMTQSPSSVSASVGDRVTITCRASQGVSSWLAWYQQKPGRAPKLLIYVASTLQSGVPSRFSGSGSGTDFTLTINSLQPEDFATYYCQQANSFPPTFGQGTRLEMKRTVAAPSVFIFPPSDEQLKSGTASVVCLLNNFYPREAKVQWKVDNALQSGNSQESVTEQDSKDSTYSLSSTLTLSKADYEKHKVYACEVTHQGLSSPVTKSFNRGEC
heavy 2: QVQLQESGPGLVKPSGTLSLTCAVSGGSISSYSWWSWIRQPPGKGLEWIGELYHSGSTNYNPSLKSRVTISVDKSKNQFSLKLRSVTAADTAVYYCVRGVATIDYWGQGTLVTVSSASTKGPSVFPLAPSSKSTSGGTAALGCLVKDYFPEPVTVSWNSGALTSGVHTFPAVLQSSGLYSLSSVVTVPSSSLGTQTYICNVNHKPSNTKVDKRVEPKSCDKTHTCPPCPAPEFERGPSVFLFPPKPKDTLMISRTPEVTCVVVDVSHEDPEVKFNWYVDGVEVHNAKTKPREEQYNSTYRVVSVLTVLHQDWLNGKEYKCKVSNKALPAPIEKTISKAKGQPREPQVYTLPPSREEMTKNQVSLTCLVKGFYPSDIAVEWESNGQPENNYKTTPPVLDSDGSFFLYSRLTVDKSRWQQGNVFSCSVMHEALHNHYTQKSLSLSPG
light 2: QSALTQPPSASGSPGQSVTISCTGTSSDVGGYNFVSWYQQDPGKAPKLLIYEVTKRPSGVPDRFSGSKSGNTASLTVSGLQAEDEADYYCSSYAGSNNVMFGGGTKLTVLGQPKAAPSVTLFPPSSEELQANKATLVCLISDFYPGAVTVAWKADSSPVKAGVETTTPSKQSNNKYAASSYLSLTPEQWKSHRSYSCQVTHEGSTVEKTVAPTECS
notes: Human IgG1 bispecific made by controlled Fab-arm exchange of IgG1-FAPα-FERL and IgG1-DR4-FERR; monovalent for FAPα and for DR4; also called GEN1057
[1]
  EC50: 0.38 µg/mL
Human DR4HsECD-FcHisCtag
  Kd: 0.39 nM
  koff: 0.00012 s⁻¹
  kon: 320000 M⁻¹ s⁻¹
[2]
  Kd: 290 nM
  koff: 0.008 s⁻¹
  kon: 28000 M⁻¹ s⁻¹

B2: BisG1-b12-FERL/DR4-FERR (bispecific antibody, human IgG1, kappa, lambda)
heavy 1: QVQLVQSGAEVKKPGASVKVSCQASGYRFSNFVIHWVRQAPGQRFEWMGWINPYNGNKEFSAKFQDRVTFTADTSANTAYMELRSLRSADTAVYYCARVGPYSWDDSPQDNYYMDVWGKGTTVIVSSASTKGPSVFPLAPSSKSTSGGTAALGCLVKDYFPEPVTVSWNSGALTSGVHTFPAVLQSSGLYSLSSVVTVPSSSLGTQTYICNVNHKPSNTKVDKRVEPKSCDKTHTCPPCPAPEFERGPSVFLFPPKPKDTLMISRTPEVTCVVVDVSHEDPEVKFNWYVDGVEVHNAKTKPREEQYNSTYRVVSVLTVLHQDWLNGKEYKCKVSNKALPAPIEKTISKAKGQPREPQVYTLPPSREEMTKNQVSLTCLVKGFYPSDIAVEWESNGQPENNYKTTPPVLDSDGSFLLYSKLTVDKSRWQQGNVFSCSVMHEALHNHYTQKSLSLSPG
light 1: EIVLTQSPGTLSLSPGERATFSCRSSHSIRSRRVAWYQHKPGQAPRLVIHGVSNRASGISDRFSGSGSGTDFTLTITRVEPEDFALYYCQVYGASSYTFGQGTKLERKRTVAAPSVFIFPPSDEQLKSGTASVVCLLNNFYPREAKVQWKVDNALQSGNSQESVTEQDSKDSTYSLSSTLTLSKADYEKHKVYACEVTHQGLSSPVTKSFNRGEC
heavy 2: QVQLQESGPGLVKPSGTLSLTCAVSGGSISSYSWWSWIRQPPGKGLEWIGELYHSGSTNYNPSLKSRVTISVDKSKNQFSLKLRSVTAADTAVYYCVRGVATIDYWGQGTLVTVSSASTKGPSVFPLAPSSKSTSGGTAALGCLVKDYFPEPVTVSWNSGALTSGVHTFPAVLQSSGLYSLSSVVTVPSSSLGTQTYICNVNHKPSNTKVDKRVEPKSCDKTHTCPPCPAPEFERGPSVFLFPPKPKDTLMISRTPEVTCVVVDVSHEDPEVKFNWYVDGVEVHNAKTKPREEQYNSTYRVVSVLTVLHQDWLNGKEYKCKVSNKALPAPIEKTISKAKGQPREPQVYTLPPSREEMTKNQVSLTCLVKGFYPSDIAVEWESNGQPENNYKTTPPVLDSDGSFFLYSRLTVDKSRWQQGNVFSCSVMHEALHNHYTQKSLSLSPG
light 2: QSALTQPPSASGSPGQSVTISCTGTSSDVGGYNFVSWYQQDPGKAPKLLIYEVTKRPSGVPDRFSGSKSGNTASLTVSGLQAEDEADYYCSSYAGSNNVMFGGGTKLTVLGQPKAAPSVTLFPPSSEELQANKATLVCLISDFYPGAVTVAWKADSSPVKAGVETTTPSKQSNNKYAASSYLSLTPEQWKSHRSYSCQVTHEGSTVEKTVAPTECS
notes: Fab-arm exchange of IgG1-b12-FERL and IgG1-DR4-FERR; also called bsIgG1-ctrl-FERLxDR4-FERR
Human DR4HsECD-FcHisCtag
  Kd: 0.32 nM
  koff: 0.0001 s⁻¹
  kon: 330000 M⁻¹ s⁻¹
[2]
  Kd: 260 nM
  koff: 0.0082 s⁻¹
  kon: 31000 M⁻¹ s⁻¹

B3: IgG1-DR4-FERR (antibody, V domains shown)
VH: QVQLQESGPGLVKPSGTLSLTCAVSGGSISSYSWWSWIRQPPGKGLEWIGELYHSGSTNYNPSLKSRVTISVDKSKNQFSLKLRSVTAADTAVYYCVRGVATIDYWGQGTLVTVSS
VL: QSALTQPPSASGSPGQSVTISCTGTSSDVGGYNFVSWYQQDPGKAPKLLIYEVTKRPSGVPDRFSGSKSGNTASLTVSGLQAEDEADYYCSSYAGSNNVMFGGGTKLTVLG
notes: Bivalent monoclonal IgG1 lambda
[1]
  EC50: 0.06 µg/mL
